From US20250009896A1, “SUPR[…] BASED VIRAL […] CAPTURE FOR PREVENTION AND THERAPY OF VIRAL INFECTION” (The Johns Hopkins University, priority 2023, published 2025)

B1: ACE2-docking supramolecular filaments (20:1 molar ratio of Filler to Ligand), without ACE2 (peptide)
peptide 1: VVVGEE
peptide 2: VVVGKKGGGDYSHCSPLRYYPWWKCTYPDPEGGG
modifications: not checked

How the values were obtained:
[1] = molecular target: T1, Recombinant human angiotensin-converting enzyme 2 (ACE2) protein, carrier-free (R&D Systems) (human), Q9BYF1
T1 sequence (Q9BYF1 18-740 limits assumed): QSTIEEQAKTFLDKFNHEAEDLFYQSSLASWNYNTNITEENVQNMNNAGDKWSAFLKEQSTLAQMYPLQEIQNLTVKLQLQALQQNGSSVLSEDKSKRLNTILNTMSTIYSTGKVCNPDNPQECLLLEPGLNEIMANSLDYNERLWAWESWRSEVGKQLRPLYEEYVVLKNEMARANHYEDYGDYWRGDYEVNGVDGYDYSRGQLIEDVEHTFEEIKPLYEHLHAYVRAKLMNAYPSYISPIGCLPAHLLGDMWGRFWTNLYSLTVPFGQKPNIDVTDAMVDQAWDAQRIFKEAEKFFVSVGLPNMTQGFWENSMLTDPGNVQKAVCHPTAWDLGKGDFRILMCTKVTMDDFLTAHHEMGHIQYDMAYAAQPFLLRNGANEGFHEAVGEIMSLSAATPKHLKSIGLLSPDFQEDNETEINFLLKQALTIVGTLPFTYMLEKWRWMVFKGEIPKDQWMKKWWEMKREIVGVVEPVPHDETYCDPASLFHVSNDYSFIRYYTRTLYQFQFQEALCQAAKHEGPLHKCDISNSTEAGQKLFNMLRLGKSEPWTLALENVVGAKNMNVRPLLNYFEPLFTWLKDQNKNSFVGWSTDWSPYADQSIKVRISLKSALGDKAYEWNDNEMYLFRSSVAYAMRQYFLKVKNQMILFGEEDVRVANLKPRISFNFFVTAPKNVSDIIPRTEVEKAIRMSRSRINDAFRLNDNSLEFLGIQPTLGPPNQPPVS

[2] = molecular target: T1, Recombinant human …; experiment: cell-based or functional assay
[3] = molecular target: T1, Recombinant human …; remark: listed apart in the source
[4] = molecular target: T1, Recombinant human …; experiment: calculated reference value for the zeta potential of the mixture

Binder	zeta potential of the 20:1 filaments after addition of ACE2 (bar '20:1+ACE2'); the sheet prints -31.9 for '20:1' without ACE2 (** between the two) and -29.4 for 'Filler' alone [1]	ACE2 enzymatic inhibition at 0 min incubation [2]	inhibition of added ACE2 (initial velocity relative to free ACE2) [2]	zeta potential of the mixture, measured [3]	intensity-averaged zeta potential calculated assuming no interaction [4]
B1	-36.7 mV	83%	93%		
VVVGKKGGGDYSHCSPLRYYPWWKCTYPDPEGGG (modifications not checked) [ACE2-binding Ligand peptide amphiphile (C12-VVVGKK-GG-OEG4-DX600)]				-25.1 mV	-17.6 mV
